Measured values published in patent US11026999B2, “Insulin glargine/lixisenatide fixed ratio formulation” (SANOFI-AVENTIS DEUTSCHLAND GMBH, priority 2013, dated 2021).

Tested on: type 2 diabetic patients
Test: Treatment-emergent adverse events, SAEs, deaths, TEAEs leading to withdrawal (Example 1)
Details: Safety population
Experimental: Safety: The safety analysis was conducted on the safety population, defined as all randomized patients who received at least one dose of IMP (regardless of the amount of treatment administered). The evaluation of AEs, laboratory, vital sign, and ECG data was descriptive.

Gly(A21)-Arg(B31)-Arg(B32)-human insulin [Insulin Glargine]
3 (1.9%) n (%): TEAE: Arthralgia (PT) | TEAE: Laceration (PT) | TEAE: Sinusitis (PT) | TEAE: Vascular disorders (SOC) | TEAE: HLGT: Musculoskeletal and connective tissue disorders NEC | TEAE: HLT: Joint related signs and symptoms | TEAE: HLT: Musculoskeletal and connective tissue pain and discomfort | TEAE: HLT: Neurological signs and symptoms NEC | TEAE: HLT: Oedema NBC
6 (3.7%) n (%): TEAE: Diarrhoea (PT) | TEAE: Influenza (PT) | Patients with any treatment emergent SAE | TEAE: HLGT: Joint disorders | TEAE: HLT: Influenza viral infections | Patients with any treatment emergent SAE (listed as insulin glargine)
2 (1.2%) n (%): TEAE: Abdominal distension (PT) | TEAE: Back pain (PT) | TEAE: Conjunctivitis (PT) | TEAE: Contusion (PT) | TEAE: Cystitis (PT) | TEAE: Depression (PT) | TEAE: Diabetic neuropathy (PT) | TEAE: Hypertension (PT) | TEAE: Intervertebral disc disorder (PT) | TEAE: Nepbrolithiasis (PT) | TEAE: Oedema (PT) | TEAE: Osteoarthritis (PT) | TEAE: Presyncope (PT) | TEAE: Rhinitis (PT) | TEAE: Sciatica (PT) | TEAE: Tinnitus (PT) | TEAE: Tooth abscess (PT) | TEAE: Ear and labyrinth disorders (SOC) | TEAE: Psychiatric disorders (SOC) | TEAE: Renal and urinary disorders (SOC) | TEAE: HLGT: Depressed mood disorders and disturbances | TEAE: HLGT: Gastrointestinal investigations | TEAE: HLGT: Inner ear and VIIIth cranial nerve disorders | TEAE: HLGT: Musculoskeletal and connective tissue deformities (incl intervertebral disc disorders) | TEAE: HLGT: Peripheral neuropathies | TEAE: HLGT: Respiratory disorders NEC | TEAE: HLGT: Spinal cord and nerve root disorders | TEAE: HLGT: Urolithiases | TEAE: HLGT: Vascular hypertensive disorders | TEAE: HLT: Chronic polyneuropathies | TEAE: HLT: Depressive disorders | TEAE: HLT: Digestive enzymes | TEAE: HLT: Flatulence, bloating and distension | TEAE: HLT: Inner ear signs and symptoms | TEAE: HLT: Intervertebral disc disorders NEC | TEAE: HLT: Lumbar spinal cord and nerve root disorders | TEAE: HLT: Osteoarthropathies | TEAE: HLT: Renal lithiasis | TEAE: HLT: Vascular hypertensive disorders NEC
11 (6.8%) n (%): TEAE: Injury, poisoning and procedural complications (SOC)
5 (3.1%) n (%): TEAE: General disorders and administration site conditions (SOC) | TEAE: Investigations (SOC) | TEAE: HLGT: Neurological disorders NEC | TEAE: HLT: Skin injuries NEC
12 (7.4%) n (%): TEAE: Headache (PT) | TEAE: HLT: Headaches NEC
0 n (%): TEAE leading to permanent treatment discontinuation: Confusional state (PT) | TEAE leading to permanent treatment discontinuation: Dizziness (PT) | TEAE leading to permanent treatment discontinuation: Headache (PT) | TEAE leading to permanent treatment discontinuation: Nausea (PT) | TEAE leading to permanent treatment discontinuation: Ovarian cancer (PT) | TEAE leading to permanent treatment discontinuation: Vomiting (PT) | TEAE: Asthenia (PT) | TEAE: Constipation (PT) | TEAE: Cough (PT) | TEAE: Decreased appetite (PT) | TEAE: Fatigue (PT) | TEAE: Hypertriglyceridaemia (PT) | TEAE: Injection site pruritus (PT) | TEAE: Insomnia (PT) | TEAE: Nausea (PT) | TEAE: Pain in extremity (PT) | Treatment emergent SAE: Angina pectoris (PT) | Treatment emergent SAE: Angina unstable (PT) | Treatment emergent SAE: Bradycardia (PT) | Treatment emergent SAE: Calculus ureteric (PT) | Treatment emergent SAE: Cellulitis (PT) | Treatment emergent SAE: Diabetic neuropathy (PT) | Treatment emergent SAE: Intervertebral disc protrusion (PT) | Treatment emergent SAE: Ovarian cancer (PT) | Treatment emergent SAE: Pain in extremity (PT) | Treatment emergent SAE: Radius fracture (PT) | Treatment emergent SAE: Sciatica (PT) | TEAE leading to permanent treatment discontinuation: Hypersensitivity (PT, adjudicated as not allergic event by ARAC) | TEAE leading to permanent treatment discontinuation: Gastrointestinal disorders (SOC) | TEAE leading to permanent treatment discontinuation: Immune system disorders (SOC) | TEAE leading to permanent treatment discontinuation: Neoplasms benign, malignant and unspecified (incl cysts and polyps) (SOC) | TEAE leading to permanent treatment discontinuation: Nervous system disorders (SOC) | TEAE leading to permanent treatment discontinuation: Psychiatric disorders (SOC) | Treatment emergent SAE: Injury, poisoning and procedural complications (SOC) | Treatment emergent SAE: Neoplasms benign, malignant and unspecified (incl cysts and polyps) (SOC) | Treatment emergent SAE: Renal and urinary disorders (SOC) | Patients with any TEAE leading to death | Patients with any TEAE leading to permanent treatment discontinuation | TEAE leading to permanent treatment discontinuation: HLGT: Allergic conditions | TEAE leading to permanent treatment discontinuation: HLGT: Deliria (incl confusion) | TEAE leading to permanent treatment discontinuation: HLGT: Gastrointestinal signs and symptoms | TEAE leading to permanent treatment discontinuation: HLGT: Headaches | TEAE leading to permanent treatment discontinuation: HLGT: Neurological disorders NEC | TEAE leading to permanent treatment discontinuation: HLGT: Reproductive neoplasms female malignant and unspecified | TEAE leading to permanent treatment discontinuation: HLT: Allergic conditions NEC | TEAE leading to permanent treatment discontinuation: HLT: Confusion and disorientation | TEAE leading to permanent treatment discontinuation: HLT: Headaches NEC | TEAE leading to permanent treatment discontinuation: HLT: Nausea and vomiting symptoms | TEAE leading to permanent treatment discontinuation: HLT: Neurological signs and symptoms NEC | TEAE leading to permanent treatment discontinuation: HLT: Ovarian neoplasms malignant (excl germ cell) | TEAE: HLGT: Lipid metabolism disorders | TEAE: HLGT: Sleep disorders and disturbances | TEAE: HLT: Asthenic conditions | TEAE: HLT: Coughing and associated symptoms | TEAE: HLT: Disturbances in initiating and maintaining sleep | TEAE: HLT: Elevated triglycerides | Treatment emergent SAE: HLGT: Bacterial infectious disorders | Treatment emergent SAE: HLGT: Bone and joint injuries | Treatment emergent SAE: HLGT: Coronary artery disorders | Treatment emergent SAE: HLGT: Musculoskeletal and connective tissue deformities (incl intervertebral disc disorders) | Treatment emergent SAE: HLGT: Musculoskeletal and connective tissue disorders NEC | Treatment emergent SAE: HLGT: Peripheral neuropathies | Treatment emergent SAE: HLGT: Reproductive neoplasms female malignant and unspecified | Treatment emergent SAE: HLGT: Spinal cord and nerve root disorders | Treatment emergent SAE: HLGT: Urolithiases | Treatment emergent SAE: HLT: Bacterial infections NEC | Treatment emergent SAE: HLT: Chronic polyneuropathies | Treatment emergent SAE: HLT: Intervertebral disc disorders NEC | Treatment emergent SAE: HLT: Ischaemic coronary artery disorders | Treatment emergent SAE: HLT: Lumbar spinal cord and nerve root disorders | Treatment emergent SAE: HLT: Musculoskeletal and connective tissue pain and discomfort | Treatment emergent SAE: HLT: Ovarian neoplasms malignant (excl germ cell) | Treatment emergent SAE: HLT: Rate and rhythm disorders NEC | Treatment emergent SAE: HLT: Upper limb fractures and dislocations | Treatment emergent SAE: HLT: Urinary tract lithiasis (excl renal)
7 (4.3%) n (%): TEAE: Eye disorders (SOC) | TEAE: HLGT: Gastrointestinal motility and defaecation conditions | TEAE: HLGT: Gastrointestinal signs and symptoms
82 (50.6%) n (%): Patients with any TEAE
20 (12.3%) n (%): TEAE: Nervous system disorders (SOC)
4 (2.5%) n (%): TEAE: Respiratory, thoracic and mediastinal disorders (SOC) | TEAE: HLGT: General system disorders NEC
9 (5.6%) n (%): TEAE: Nasopharyngitis (PT) | TEAE: HLGT: Injuries NEC
15 (9.3%) n (%): TEAE: Gastrointestinal disorders (SOC)
none: Patients with any TEAE leading to permanent treatment discontinuation (listed as insulin glargine)
1 (0.6%) n (%): TEAE: Atrial fibrillation (PT) | TEAE: Bronchitis (PT) | TEAE: Dizziness (PT) | TEAE: Dyspepsia (PT) | TEAE: Gastroenteritis (PT) | TEAE: Lipase increased (PT) | TEAE: Musculoskeletal pain (PT) | TEAE: Vomiting (PT) | Treatment emergent SAE: Atrial fibrillation (PT) | Treatment emergent SAE: Depression (PT) | Treatment emergent SAE: ECG signs of myocardial ischaemia (PT) | Treatment emergent SAE: Osteoarthritis (PT) | Treatment emergent SAE: Presyncope (PT) | TEAE: Cardiac disorders (SOC) | TEAE: Metabolism and nutrition disorders (SOC) | Treatment emergent SAE: Cardiac disorders (SOC) | Treatment emergent SAE: Investigations (SOC) | Treatment emergent SAE: Musculoskeletal and connective tissue disorders (SOC) | Treatment emergent SAE: Nervous system disorders (SOC) | Treatment emergent SAE: Psychiatric disorders (SOC) | TEAE: HLGT: Administration site reactions | TEAE: HLGT: Appetite and general nutritional disorders | TEAE: HLGT: Cardiac arrhythmias | TEAE: HLT: Appetite disorders | TEAE: HLT: Dyspeptic signs and symptoms | TEAE: HLT: Gastrointestinal atonic and hypomotility disorders NEC | TEAE: HLT: Injection site reactions | TEAE: HLT: Lower respiratory tract and lung infections | TEAE: HLT: Nausea and vomiting symptoms | TEAE: HLT: Supraventricular arrhythmias | Treatment emergent SAE: HLGT: Cardiac and vascular investigations (excl enzyme tests) | Treatment emergent SAE: HLGT: Cardiac arrhythmias | Treatment emergent SAE: HLGT: Depressed mood disorders and disturbances | Treatment emergent SAE: HLGT: Joint disorders | Treatment emergent SAE: HLGT: Neurological disorders NEC | Treatment emergent SAE: HLT: Depressive disorders | Treatment emergent SAE: HLT: ECG investigations | Treatment emergent SAE: HLT: Neurological signs and symptoms NEC | Treatment emergent SAE: HLT: Osteoarthropathies | Treatment emergent SAE: HLT: Supraventricular arrhythmias
13 (8.0%) n (%): TEAE: Musculoskeletal and connective tissue disorders (SOC) | TEAE: HLGT: Headaches
